According to patent US20190134153A1, “IMMUNOMODULATORY EFFECT OF INHALED KINASE INHIBITOR PEPTIDES IN LUNG” (MOERAE MATRIX, INC., priority 2017, published 2019):

How the values were obtained:
Test in all cases: Kinase Profiling Assay
Type in all cases: biochemical
Conditions in all cases: 100 μM
[1] = molecular target: T1, IRAK4(h) (Homo sapiens, UniProt Q9NWZ3)
T1 sequence (Q9NWZ3 1-460): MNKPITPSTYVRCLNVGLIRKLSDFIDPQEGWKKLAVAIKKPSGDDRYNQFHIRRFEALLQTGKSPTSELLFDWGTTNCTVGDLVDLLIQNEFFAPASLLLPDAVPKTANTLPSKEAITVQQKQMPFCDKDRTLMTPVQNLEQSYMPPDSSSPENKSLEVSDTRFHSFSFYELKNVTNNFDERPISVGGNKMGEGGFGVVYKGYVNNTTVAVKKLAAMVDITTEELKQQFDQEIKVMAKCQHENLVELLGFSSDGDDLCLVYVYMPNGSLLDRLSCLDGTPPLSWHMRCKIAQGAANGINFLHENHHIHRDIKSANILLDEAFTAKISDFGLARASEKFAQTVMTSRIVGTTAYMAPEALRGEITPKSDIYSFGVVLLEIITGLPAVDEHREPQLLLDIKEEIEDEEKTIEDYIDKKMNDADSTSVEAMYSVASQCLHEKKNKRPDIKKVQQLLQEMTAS

[2] = molecular target: T2, PDK1(h) (Homo sapiens, UniProt O15530)
T2 sequence (O15530 1-556): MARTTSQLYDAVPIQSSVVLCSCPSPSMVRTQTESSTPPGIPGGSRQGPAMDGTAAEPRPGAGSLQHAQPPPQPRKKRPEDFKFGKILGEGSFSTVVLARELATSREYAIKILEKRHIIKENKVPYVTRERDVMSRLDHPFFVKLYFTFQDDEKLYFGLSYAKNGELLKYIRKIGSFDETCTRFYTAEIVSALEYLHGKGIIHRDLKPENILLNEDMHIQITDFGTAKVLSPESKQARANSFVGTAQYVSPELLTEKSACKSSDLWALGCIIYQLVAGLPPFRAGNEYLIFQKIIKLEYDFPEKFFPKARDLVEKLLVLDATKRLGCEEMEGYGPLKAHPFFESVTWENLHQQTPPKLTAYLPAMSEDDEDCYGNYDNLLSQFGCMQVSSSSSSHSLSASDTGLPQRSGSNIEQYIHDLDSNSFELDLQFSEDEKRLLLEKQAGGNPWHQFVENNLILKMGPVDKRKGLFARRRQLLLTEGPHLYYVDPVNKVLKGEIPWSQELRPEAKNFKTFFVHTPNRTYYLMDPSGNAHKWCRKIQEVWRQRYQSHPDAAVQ

[3] = molecular target: T3, PKCε(h) (Homo sapiens, UniProt Q02156)
T3 sequence (Q02156 1-737): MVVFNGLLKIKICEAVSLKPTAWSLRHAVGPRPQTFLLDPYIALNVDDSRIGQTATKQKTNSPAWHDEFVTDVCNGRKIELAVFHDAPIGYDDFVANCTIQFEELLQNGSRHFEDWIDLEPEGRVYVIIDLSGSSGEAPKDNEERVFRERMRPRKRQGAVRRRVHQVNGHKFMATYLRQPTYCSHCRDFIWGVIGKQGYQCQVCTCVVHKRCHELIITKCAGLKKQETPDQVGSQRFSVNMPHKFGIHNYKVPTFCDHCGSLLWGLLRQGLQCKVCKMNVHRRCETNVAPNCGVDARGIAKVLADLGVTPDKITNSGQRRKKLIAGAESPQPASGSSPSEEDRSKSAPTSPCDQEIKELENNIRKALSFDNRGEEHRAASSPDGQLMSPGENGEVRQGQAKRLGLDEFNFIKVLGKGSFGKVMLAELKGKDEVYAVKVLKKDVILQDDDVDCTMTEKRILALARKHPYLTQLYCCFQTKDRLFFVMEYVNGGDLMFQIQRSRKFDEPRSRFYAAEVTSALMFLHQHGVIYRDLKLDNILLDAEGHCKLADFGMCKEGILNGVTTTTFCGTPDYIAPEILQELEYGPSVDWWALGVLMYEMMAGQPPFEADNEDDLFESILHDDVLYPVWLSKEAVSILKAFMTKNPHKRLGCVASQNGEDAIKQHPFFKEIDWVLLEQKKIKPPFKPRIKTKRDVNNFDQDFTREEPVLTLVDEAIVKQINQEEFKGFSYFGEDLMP

[4] = molecular target: T4, PKG1α(h) (Homo sapiens, UniProt Q13976)
T4 sequence (Q13976 1-671): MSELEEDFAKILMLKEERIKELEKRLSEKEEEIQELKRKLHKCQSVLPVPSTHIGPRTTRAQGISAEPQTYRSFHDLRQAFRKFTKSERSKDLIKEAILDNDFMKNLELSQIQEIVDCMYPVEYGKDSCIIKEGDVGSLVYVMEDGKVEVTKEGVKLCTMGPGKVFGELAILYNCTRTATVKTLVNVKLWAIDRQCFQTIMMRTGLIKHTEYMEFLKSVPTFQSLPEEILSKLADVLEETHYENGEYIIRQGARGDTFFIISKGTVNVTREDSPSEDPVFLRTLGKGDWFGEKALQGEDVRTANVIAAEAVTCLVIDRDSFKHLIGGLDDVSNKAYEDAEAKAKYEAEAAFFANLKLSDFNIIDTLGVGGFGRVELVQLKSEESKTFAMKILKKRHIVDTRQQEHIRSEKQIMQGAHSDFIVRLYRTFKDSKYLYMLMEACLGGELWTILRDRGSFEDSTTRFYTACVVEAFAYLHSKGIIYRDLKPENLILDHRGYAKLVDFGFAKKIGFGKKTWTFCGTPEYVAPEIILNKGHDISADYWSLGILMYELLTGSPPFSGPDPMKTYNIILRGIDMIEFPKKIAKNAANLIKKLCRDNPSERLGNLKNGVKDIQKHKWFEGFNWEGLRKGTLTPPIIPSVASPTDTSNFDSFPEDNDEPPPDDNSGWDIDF

[5] = molecular target: RIPK2(h) (Homo sapiens, UniProt O43353)
RIPK2(h), sequence (O43353 whole entry): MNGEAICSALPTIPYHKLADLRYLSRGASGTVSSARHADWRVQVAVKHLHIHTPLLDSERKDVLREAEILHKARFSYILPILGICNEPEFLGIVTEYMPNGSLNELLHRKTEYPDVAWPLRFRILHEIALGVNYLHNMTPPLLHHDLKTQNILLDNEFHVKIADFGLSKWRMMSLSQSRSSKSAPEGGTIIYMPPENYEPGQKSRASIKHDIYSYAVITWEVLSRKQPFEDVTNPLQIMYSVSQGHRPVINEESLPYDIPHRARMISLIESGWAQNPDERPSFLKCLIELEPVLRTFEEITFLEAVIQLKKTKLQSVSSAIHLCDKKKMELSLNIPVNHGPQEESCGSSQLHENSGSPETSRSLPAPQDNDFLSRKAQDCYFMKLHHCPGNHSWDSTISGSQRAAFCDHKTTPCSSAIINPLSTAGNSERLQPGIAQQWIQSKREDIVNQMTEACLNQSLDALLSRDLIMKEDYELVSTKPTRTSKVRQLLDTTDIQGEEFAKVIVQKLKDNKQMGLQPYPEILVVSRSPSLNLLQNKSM

Sequence	% activity [1]	% activity [2]	% activity [3]	% activity [4]	% activity [5]
FAKLAARLYRKALARQLGVAA [MMI-0300]	59%	135%	79%	64%	97%
KAFAKLAARLYRKALARQLGVAA [MMI-0400]	59%	159%	59%	58%	98%
HRRIKAWLKKIKALARQLGVAA [MMI-0500]	3%	178%	23%	25%	30%
YARAAARQARAKALNRQLGVA [MMI-0200]	110%	143%	98%	70%	98%
